Reference: patent US20210388087A1 (Chugai, published 2021)

Target: T1, Human CD137 ECD (human)
T1 construct: entry includes C-terminal His-tag and biotin acceptor peptide; also called human CD137 extracellular domain; 4-1BB
Assay: Biacore SPR, vs parent H183/L072

T1 sequence (chain, as listed by the source limits assumed): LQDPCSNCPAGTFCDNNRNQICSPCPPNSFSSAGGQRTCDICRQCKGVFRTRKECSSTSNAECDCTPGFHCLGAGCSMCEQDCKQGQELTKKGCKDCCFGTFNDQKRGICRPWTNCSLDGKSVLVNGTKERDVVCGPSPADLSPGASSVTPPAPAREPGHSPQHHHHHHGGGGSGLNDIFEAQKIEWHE

fold change of affinity [fold] | Binder
0.1 | H183/L072 VL A25L (antibody, name in Kabat numbering, V domains shown, Dual-Ig) VH: QVQLVESGGGLVQPGRSLRLSCAASGFTFSNAWMHWVRQAPGKGLEWVAQIKDKGNAYAAYYAPSVKGRFTISRDDSKNSIYLQMNSLKTEDTAVYYCHYVHYASASTVLPAFGVDAWGQGTTVTVSS VL: DIVMTQSPLSLPVTPGEPASISCQLSQELVHMNRNTYLHWYQQKPGQAPRLLIYKVSNRFPGVPDRFSGSGSGTDFTLKISRVEAEDVGVYYCAQGTSVPFTFGQGTKLEIK
1.1 | H183/L072 VL A25S (antibody, name in Kabat numbering, V domains shown, Dual-Ig) VH: QVQLVESGGGLVQPGRSLRLSCAASGFTFSNAWMHWVRQAPGKGLEWVAQIKDKGNAYAAYYAPSVKGRFTISRDDSKNSIYLQMNSLKTEDTAVYYCHYVHYASASTVLPAFGVDAWGQGTTVTVSS VL: DIVMTQSPLSLPVTPGEPASISCQSSQELVHMNRNTYLHWYQQKPGQAPRLLIYKVSNRFPGVPDRFSGSGSGTDFTLKISRVEAEDVGVYYCAQGTSVPFTFGQGTKLEIK
0.5 | H183/L072 VL A25V (antibody, name in Kabat numbering, V domains shown, Dual-Ig) VH: QVQLVESGGGLVQPGRSLRLSCAASGFTFSNAWMHWVRQAPGKGLEWVAQIKDKGNAYAAYYAPSVKGRFTISRDDSKNSIYLQMNSLKTEDTAVYYCHYVHYASASTVLPAFGVDAWGQGTTVTVSS VL: DIVMTQSPLSLPVTPGEPASISCQVSQELVHMNRNTYLHWYQQKPGQAPRLLIYKVSNRFPGVPDRFSGSGSGTDFTLKISRVEAEDVGVYYCAQGTSVPFTFGQGTKLEIK
0.1 | H183/L072 VL A25M (antibody, name in Kabat numbering, V domains shown, Dual-Ig) VH: QVQLVESGGGLVQPGRSLRLSCAASGFTFSNAWMHWVRQAPGKGLEWVAQIKDKGNAYAAYYAPSVKGRFTISRDDSKNSIYLQMNSLKTEDTAVYYCHYVHYASASTVLPAFGVDAWGQGTTVTVSS VL: DIVMTQSPLSLPVTPGEPASISCQMSQELVHMNRNTYLHWYQQKPGQAPRLLIYKVSNRFPGVPDRFSGSGSGTDFTLKISRVEAEDVGVYYCAQGTSVPFTFGQGTKLEIK
0 | H183/L072 VL A89E (antibody, name in Kabat numbering, V domains shown, Dual-Ig) VH: QVQLVESGGGLVQPGRSLRLSCAASGFTFSNAWMHWVRQAPGKGLEWVAQIKDKGNAYAAYYAPSVKGRFTISRDDSKNSIYLQMNSLKTEDTAVYYCHYVHYASASTVLPAFGVDAWGQGTTVTVSS VL: DIVMTQSPLSLPVTPGEPASISCQASQELVHMNRNTYLHWYQQKPGQAPRLLIYKVSNRFPGVPDRFSGSGSGTDFTLKISRVEAEDVGVYYCEQGTSVPFTFGQGTKLEIK
0 | H183/L072 VL A89D (antibody, name in Kabat numbering, V domains shown, Dual-Ig) VH: QVQLVESGGGLVQPGRSLRLSCAASGFTFSNAWMHWVRQAPGKGLEWVAQIKDKGNAYAAYYAPSVKGRFTISRDDSKNSIYLQMNSLKTEDTAVYYCHYVHYASASTVLPAFGVDAWGQGTTVTVSS VL: DIVMTQSPLSLPVTPGEPASISCQASQELVHMNRNTYLHWYQQKPGQAPRLLIYKVSNRFPGVPDRFSGSGSGTDFTLKISRVEAEDVGVYYCDQGTSVPFTFGQGTKLEIK
0 | H183/L072 VL A89I (antibody, name in Kabat numbering, V domains shown, Dual-Ig) VH: QVQLVESGGGLVQPGRSLRLSCAASGFTFSNAWMHWVRQAPGKGLEWVAQIKDKGNAYAAYYAPSVKGRFTISRDDSKNSIYLQMNSLKTEDTAVYYCHYVHYASASTVLPAFGVDAWGQGTTVTVSS VL: DIVMTQSPLSLPVTPGEPASISCQASQELVHMNRNTYLHWYQQKPGQAPRLLIYKVSNRFPGVPDRFSGSGSGTDFTLKISRVEAEDVGVYYCIQGTSVPFTFGQGTKLEIK
0.7 | H183/L072 VL A25T (antibody, name in Kabat numbering, V domains shown, Dual-Ig) VH: QVQLVESGGGLVQPGRSLRLSCAASGFTFSNAWMHWVRQAPGKGLEWVAQIKDKGNAYAAYYAPSVKGRFTISRDDSKNSIYLQMNSLKTEDTAVYYCHYVHYASASTVLPAFGVDAWGQGTTVTVSS VL: DIVMTQSPLSLPVTPGEPASISCQTSQELVHMNRNTYLHWYQQKPGQAPRLLIYKVSNRFPGVPDRFSGSGSGTDFTLKISRVEAEDVGVYYCAQGTSVPFTFGQGTKLEIK
0 | H183/L072 VL A89K (antibody, name in Kabat numbering, V domains shown, Dual-Ig) VH: QVQLVESGGGLVQPGRSLRLSCAASGFTFSNAWMHWVRQAPGKGLEWVAQIKDKGNAYAAYYAPSVKGRFTISRDDSKNSIYLQMNSLKTEDTAVYYCHYVHYASASTVLPAFGVDAWGQGTTVTVSS VL: DIVMTQSPLSLPVTPGEPASISCQASQELVHMNRNTYLHWYQQKPGQAPRLLIYKVSNRFPGVPDRFSGSGSGTDFTLKISRVEAEDVGVYYCKQGTSVPFTFGQGTKLEIK
0 | H183/L072 VL A89H (antibody, name in Kabat numbering, V domains shown, Dual-Ig) VH: QVQLVESGGGLVQPGRSLRLSCAASGFTFSNAWMHWVRQAPGKGLEWVAQIKDKGNAYAAYYAPSVKGRFTISRDDSKNSIYLQMNSLKTEDTAVYYCHYVHYASASTVLPAFGVDAWGQGTTVTVSS VL: DIVMTQSPLSLPVTPGEPASISCQASQELVHMNRNTYLHWYQQKPGQAPRLLIYKVSNRFPGVPDRFSGSGSGTDFTLKISRVEAEDVGVYYCHQGTSVPFTFGQGTKLEIK
0.1 | H183/L072 VL A25Q (antibody, name in Kabat numbering, V domains shown, Dual-Ig) VH: QVQLVESGGGLVQPGRSLRLSCAASGFTFSNAWMHWVRQAPGKGLEWVAQIKDKGNAYAAYYAPSVKGRFTISRDDSKNSIYLQMNSLKTEDTAVYYCHYVHYASASTVLPAFGVDAWGQGTTVTVSS VL: DIVMTQSPLSLPVTPGEPASISCQQSQELVHMNRNTYLHWYQQKPGQAPRLLIYKVSNRFPGVPDRFSGSGSGTDFTLKISRVEAEDVGVYYCAQGTSVPFTFGQGTKLEIK
0 | H183/L072 VL A89F (antibody, name in Kabat numbering, V domains shown, Dual-Ig) VH: QVQLVESGGGLVQPGRSLRLSCAASGFTFSNAWMHWVRQAPGKGLEWVAQIKDKGNAYAAYYAPSVKGRFTISRDDSKNSIYLQMNSLKTEDTAVYYCHYVHYASASTVLPAFGVDAWGQGTTVTVSS VL: DIVMTQSPLSLPVTPGEPASISCQASQELVHMNRNTYLHWYQQKPGQAPRLLIYKVSNRFPGVPDRFSGSGSGTDFTLKISRVEAEDVGVYYCFQGTSVPFTFGQGTKLEIK
0.5 | H183/L072 VL A89G (antibody, name in Kabat numbering, V domains shown, Dual-Ig) VH: QVQLVESGGGLVQPGRSLRLSCAASGFTFSNAWMHWVRQAPGKGLEWVAQIKDKGNAYAAYYAPSVKGRFTISRDDSKNSIYLQMNSLKTEDTAVYYCHYVHYASASTVLPAFGVDAWGQGTTVTVSS VL: DIVMTQSPLSLPVTPGEPASISCQASQELVHMNRNTYLHWYQQKPGQAPRLLIYKVSNRFPGVPDRFSGSGSGTDFTLKISRVEAEDVGVYYCGQGTSVPFTFGQGTKLEIK
0.2 | H183/L072 VL A25N (antibody, name in Kabat numbering, V domains shown, Dual-Ig) VH: QVQLVESGGGLVQPGRSLRLSCAASGFTFSNAWMHWVRQAPGKGLEWVAQIKDKGNAYAAYYAPSVKGRFTISRDDSKNSIYLQMNSLKTEDTAVYYCHYVHYASASTVLPAFGVDAWGQGTTVTVSS VL: DIVMTQSPLSLPVTPGEPASISCQNSQELVHMNRNTYLHWYQQKPGQAPRLLIYKVSNRFPGVPDRFSGSGSGTDFTLKISRVEAEDVGVYYCAQGTSVPFTFGQGTKLEIK
1.4 | H183/L072 VL A25P (antibody, name in Kabat numbering, V domains shown, Dual-Ig) VH: QVQLVESGGGLVQPGRSLRLSCAASGFTFSNAWMHWVRQAPGKGLEWVAQIKDKGNAYAAYYAPSVKGRFTISRDDSKNSIYLQMNSLKTEDTAVYYCHYVHYASASTVLPAFGVDAWGQGTTVTVSS VL: DIVMTQSPLSLPVTPGEPASISCQPSQELVHMNRNTYLHWYQQKPGQAPRLLIYKVSNRFPGVPDRFSGSGSGTDFTLKISRVEAEDVGVYYCAQGTSVPFTFGQGTKLEIK
